Source: the Immune Epitope Database (IEDB)
One block for each sequence: values may come before it.

Tests used:
HLA-A*30:01 = assay: IEDB peptide-MHC binding, purified MHC/competitive/radioactivity; filed as Kd, often an IC50 or EC50 that approximates it; ≥ and ≤ were set here for values at or beyond the usual limits of such assays
HLA-B*35:01 = assay: as above; settings: source organism: Dengue virus 1 Brazil/97-11/1997
HLA-B*08:01 = assay: as above
HLA-A*68:02 = assay: as above
HLA-A*02:02 = assay: as above
HLA-A*02:06 = assay: as above
HLA-A*02:03 = assay: as above
HLA-A*30:02 = assay: as above
HLA-A*26:01 = assay: as above
HLA-A*23:01 = assay: as above
HLA-A*29:02 = assay: as above
HLA-A*01:01 = assay: as above
HLA-A*24:02 = assay: as above
HLA-A*02:01 [1] = assay: IEDB peptide-MHC binding, purified MHC/competitive/fluorescence; filed as Kd, often an IC50 or EC50 that approximates it; ≥ and ≤ were set here for values at or beyond the usual limits of such assays
HLA-B*51:01 = assay: IEDB peptide-MHC binding, purified MHC/competitive/radioactivity; filed as Kd, often an IC50 or EC50 that approximates it; ≥ and ≤ were set here for values at or beyond the usual limits of such assays
HLA-B*40:01 = assay: as above; settings: source organism: Dengue virus 2 Jamaica/1409/1983
HLA-A*02:01 [2] = assay: IEDB peptide-MHC binding, purified MHC/competitive/fluorescence; ≥ and ≤ were set here for values at or beyond the usual limits of such assays; settings: source organism: Hepatitis C virus genotype 1
[3] = source organism: Vaccinia virus WR
[4] = source organism: Trypanosoma cruzi
[5] = source organism: SARS coronavirus Tor2
[6] = source organism: Mammarenavirus whitewaterense
[7] = source organism: Dengue virus 2 Jamaica/1409/1983
[8] = source organism: Dengue virus 3 Singapore/8120/1995
[9] = source organism: Dengue virus 3 Martinique/1243/1999
[10] = source organism: Mammarenavirus mopeiaense
[11] = source organism: Hepatitis C virus (isolate 1)
[12] = source organism: Dengue virus 1 Brazil/97-11/1997
[13] = source organism: Lymphocytic choriomeningitis virus (strain Armstrong)

Sequence: HQHLAIMFK
Kd (HLA-A*30:01; [3]): 0.00499 µM

Sequence: IANQAAILM
Kd (HLA-B*35:01): 0.103 µM

Sequence: MFISLFMIL
Kd (HLA-B*08:01; [3]): 0.223 µM

Sequence: FVNHRFTLV
Kd (HLA-A*68:02; [4]): 0.0893 µM
Kd (HLA-A*02:02; [4]): 0.0818 µM
Kd (HLA-A*02:06; [4]): 0.00657 µM
Kd (HLA-A*02:03; [4]): 0.00138 µM

Sequence: VSIINNAVY
Kd (HLA-A*30:02; [5]): 0.00917 µM
Kd (HLA-A*26:01; [5]): 15.3 µM
Kd (HLA-A*23:01; [5]): ≥ 44.3 µM
Kd (HLA-A*29:02; [5]): 1.07 µM
Kd (HLA-A*01:01; [5]): 0.883 µM
Kd (HLA-A*24:02; [5]): ≥ 58.7 µM

Sequence: MSKSHAAYI
Kd (HLA-A*30:01; [3]): 0.000227 µM

Sequence: YLALYNKYKY
Kd (HLA-A*30:02; [5]): 0.0345 µM
Kd (HLA-A*26:01; [5]): 19.2 µM
Kd (HLA-A*23:01; [5]): 11.6 µM
Kd (HLA-A*29:02; [5]): 0.0432 µM
Kd (HLA-A*01:01; [5]): 0.244 µM
Kd (HLA-A*24:02; [5]): 18.6 µM

Sequence: FMYTKHSML
Kd (HLA-A*02:02; [3]): 0.0024 µM
Kd (HLA-A*02:06; [3]): 0.222 µM
Kd (HLA-B*08:01; [3]): 0.0002 µM
Kd (HLA-A*02:03; [3]): 0.000394 µM

Sequence: SYREAACCHL
Kd (HLA-A*30:02; [5]): 7.04 µM
Kd (HLA-A*26:01; [5]): ≥ 69.7 µM
Kd (HLA-A*23:01; [5]): 0.643 µM
Kd (HLA-A*29:02; [5]): ≥ 28.9 µM
Kd (HLA-A*01:01; [5]): ≥ 25.1 µM
Kd (HLA-A*24:02; [5]): 0.221 µM

Sequence: ILDSFDPLV
Kd (HLA-A*02:01 [1]; source organism: Hepacivirus hominis): 0.0006 µM

Sequence: PYIASRSQI
Kd (HLA-A*23:01; [6]): 0.492 µM
Kd (HLA-A*29:02; [6]): ≥ 78.9 µM
Kd (HLA-A*24:02; [6]): 2.81 µM

Kd (HLA-A*68:02; source organism: Homo sapiens): ≥ 60 µM
Kd (HLA-A*02:06; source organism: Homo sapiens): ≥ 59.1 µM
Sequence: KLKKLEEEQI

Sequence: LYLTQDLFL
Kd (HLA-A*30:02; [5]): ≥ 81.1 µM
Kd (HLA-A*26:01; [5]): ≥ 34 µM
Kd (HLA-A*23:01; [5]): ≥ 81.7 µM
Kd (HLA-A*29:02; [5]): ≥ 71.9 µM
Kd (HLA-A*01:01; [5]): ≥ 20.4 µM
Kd (HLA-A*24:02; [5]): ≥ 70.3 µM

Sequence: MAISGDDCVV
Kd (HLA-B*51:01; [7]): 4.86 µM

Sequence: LLVTHYAII
Kd (HLA-B*08:01; [8]): 0.667 µM
Kd (HLA-A*02:03; [8]): 0.0392 µM

Sequence: VLPFDIKKL
Kd (HLA-A*02:01 [1]; [3]): 0.525 µM

Sequence: IENSSVNVSL
Kd (HLA-B*08:01; [7]): 0.764 µM
Kd (HLA-B*40:01): 0.00159 µM

Sequence: SAKRITESI
Kd (HLA-B*08:01; [3]): 0.119 µM

Kd (HLA-A*24:02; source organism: Homo sapiens): 0.028 µM
Sequence: LYSACFWWL

Sequence: KADRVIDPRR
Kd (HLA-A*30:01; [9]): 5.18 µM

Sequence: PYIASRTSIV
Kd (HLA-A*30:02; [10]): ≥ 37.3 µM
Kd (HLA-A*26:01; [10]): ≥ 69.7 µM
Kd (HLA-A*23:01; [10]): 1.59 µM
Kd (HLA-A*29:02; [10]): ≥ 32.6 µM
Kd (HLA-A*01:01; [10]): ≥ 44.5 µM
Kd (HLA-A*24:02; [10]): 2.5 µM

Sequence: AAKGASMTL
Kd (HLA-A*30:01; [3]): 0.000998 µM

Sequence: APALQEAYY
Kd (HLA-A*30:02; [5]): 0.365 µM
Kd (HLA-A*26:01; [5]): ≥ 65.6 µM
Kd (HLA-A*23:01; [5]): ≥ 77.8 µM
Kd (HLA-A*29:02; [5]): 1.99 µM
Kd (HLA-A*01:01; [5]): ≥ 109 µM
Kd (HLA-A*24:02; [5]): ≥ 77.6 µM

Sequence: CINGVCWTV
IC50 (HLA-A*02:01 [2]): ≥ 50 µM
Kd (HLA-A*68:02; [11]): 3.78 µM
Kd (HLA-A*02:02; [11]): 3.35 µM
Kd (HLA-A*02:06; [11]): 4.37 µM
Kd (HLA-A*02:03; [11]): 6.44 µM

Sequence: YEDQDALFAY
Kd (HLA-A*30:02; [5]): 2.03 µM
Kd (HLA-A*26:01; [5]): ≥ 64.8 µM
Kd (HLA-A*23:01; [5]): ≥ 70 µM
Kd (HLA-A*29:02; [5]): 0.53 µM
Kd (HLA-A*01:01; [5]): ≥ 92.6 µM
Kd (HLA-A*24:02; [5]): ≥ 70.3 µM

Sequence: LGSLGCKPLT
Kd (HLA-A*30:01; source organism: Dengue virus 1 Singapore/S275/1990): 1.41 µM

Sequence: NVMKRINCF
Kd (HLA-B*08:01; [3]): 0.0198 µM

Sequence: MAYMIGQTGI
Kd (HLA-B*51:01; source organism: Dengue virus 4 Philippines/H241/1956): 0.0571 µM

Sequence: KLELKGMSY
Kd (HLA-A*30:02; [9]): ≥ 76.9 µM
Kd (HLA-A*01:01; [9]): 0.391 µM

Sequence: DRRSFFKCF
Kd (HLA-B*08:01; source organism: Vaccinia virus Copenhagen): 0.0757 µM

Sequence: TSMSFSCIAI
Kd (HLA-A*68:02; [9]): 0.00123 µM

Sequence: LAGPMPVTV
Kd (HLA-B*51:01; [12]): 0.87 µM

Sequence: VKIPTHRHI
Kd (HLA-A*30:02; [13]): ≥ 76.9 µM
Kd (HLA-A*26:01; [13]): ≥ 77.9 µM
Kd (HLA-A*23:01; [13]): ≥ 77.7 µM
Kd (HLA-A*29:02; [13]): 15.4 µM
Kd (HLA-A*01:01; [13]): ≥ 78.1 µM
Kd (HLA-A*24:02; [13]): ≥ 77.5 µM

Sequence: TYASALWEI
Kd (HLA-A*30:02; [5]): ≥ 81.1 µM
Kd (HLA-A*26:01; [5]): ≥ 77.9 µM
Kd (HLA-A*23:01; [5]): 8.14 µM
Kd (HLA-A*29:02; [5]): 14.2 µM
Kd (HLA-A*01:01; [5]): ≥ 78.1 µM
Kd (HLA-A*24:02; [5]): ≥ 21.5 µM

Sequence: TATLILAGV
Kd (HLA-A*68:02; [9]): 0.00107 µM

Sequence: RTTWALCESI
Kd (HLA-A*68:02; [12]): 0.139 µM

Sequence: RTAGMIIMLI
Kd (HLA-A*68:02; source organism: Dengue virus 2 Peru/IQT2913/1996): 0.0616 µM

Sequence: LAHAIGTSI
Kd (HLA-B*51:01; [12]): 0.157 µM

Sequence: LCLIPTVMAF
Kd (HLA-A*23:01; source organism: Dengue virus 4 Dominica/814669/1981): 0.454 µM

Sequence: MSYSMCTGKF
Kd (HLA-A*30:02; [7]): 1.1 µM
Kd (HLA-A*26:01; [7]): 0.0794 µM
Kd (HLA-A*01:01; [7]): 18 µM
